Measured values as given in patent US20260125454A1 (SHANGHAI JUNSHI BIOSCIENCES, published 2026).
One block for each binder: values may come before it. Bridges are numbered along the chain shown (N, C = ends). Where no end group is shown, it is not given here. The star is where a group is joined. Biotin = O=C1N[C@H]2[C@H](CS[C@H]2CCCCC(=O)*)N1

Tests used:
[1] = target: T1, synthetic human α-CGRP polypeptide (SEQ ID NO: 97)-NH2 (human, C-terminal phenylalanine amide (F-NH2); one intrachain disulfide bond between the two CYS residues (printed as positions 7 and 12)); assay: BLI (Octet), antibody on AHC2, 50 nM CGRP; association pH 7.4, dissociation pH 5.5
T1 construct: Analyte in solution (50 nM) in the pH-dependence BLI assay
T1 peptide: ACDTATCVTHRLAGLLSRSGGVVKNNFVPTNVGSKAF
Method: (§1) The association/dissociation profiles for three antibodies Hu224, galcanezumab analogue and fremanezumab analogue binding to the antigen human α-CGRP in solutions at different pH (7.4 and 5.5) were determined on an Octet RBD96e system. The pH 7.4 buffer contained 10 mM HEPES (pH 7.4), 150 mM sodium chloride, 3 mM EDTA, and 0.05% P20. The pH 5.5 buffer contained 10 mM NaAc (pH 5.5), 150 mM sodium chloride, and 0.05% P20. The three antibodies Hu224, galcanezumab analogue, and fremanezumab analogue were immobilized on the surfaces of AHC2 bioprobes (Sartorius, Cat. No. 18-5142) at 10 μg/mL, respectively. 50 nM human α-CGRPs diluted in different pH (7.4 and 5.5) buffers were used to bind to the antibodies during the 0 to 200 s antigen association phase, and different pH (7.4 and 5.5) buffers were used to wash during the 0 to 200 s antigen dissociation phase. The conditions were pH 7.4 association and pH 7.4 dissociation, pH 7.4 association and pH 5.5 dissociation, and pH 5.5 association and pH 5.5 dissociation. The binding signals of the antigen at the time of injection for 200 s were calculated using analytical software and fitted to give the dissociation constant kd. The amino acid sequence of the synthetic human α-CGRP polypeptide fragment is […] […]

[2] = target: T1, synthetic human α-CGRP polypeptide (SEQ …); assay: BLI (Octet), antibody on AHC2, 50 nM CGRP; association pH 5.5, dissociation pH 5.5
Method: as §1

Biotin-huCGRPaSA = target: T2, Biotin-huCGRPaSA (human, not fully specified; biotin (position not given)); assay: ELISA, supernatant; relative to chimeric C245
T2 construct: exact construct ('aSA') not explained; also called Biotin CGRPaSA; full-length (1-37) CGRP
T2 peptide: T1 peptide
Summary of the method: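 Plates coated with biotin-CGRPaSA at 1.0 μg/mL (90 min, 37°C) and blocked with 2% BSA. Humanized antibodies and chimeric C245 reference, 2.5-fold serial dilutions from 1000 ng/mL, bound 60 min at 37°C. Detection by HRP anti-human IgG (Fc), TMB 15 min, read at 450/620 nm.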

CGRP antigen = assay: cell-based or functional assay
[3] = target: T1, synthetic human α-CGRP polypeptide (SEQ …); assay: BLI (Octet), antibody on AHC2, 50 nM CGRP; association pH 7.4, dissociation pH 7.4
Method: as §1

hCGRP(13-24) = target: T3, hCGRP(13-24) (human); assay: BLI (Octet), biotin-peptide on SA probe
T3 construct: also called polypeptide 13-24
T3 peptide: Biotin-GGGGGAGLLSRSGGVVK
Method: (§2) The kinetic parameters of C245 Fab (Fab monomer fragments derived from antibody C245) binding to six synthetic human CGRP alpha polypeptide fragments (polypeptide 1-13, polypeptide 1-19, polypeptide 1-37, polypeptide 8-19, polypeptide 8-26, and polypeptide 13-24) were determined on an Octet RBD 96e system. Human CGRP synthetic polypeptide fragments were immobilized on the surfaces of SA bioprobes (Sartorius, Cat. No. 18-5019) at the following concentrations: 46.5 nM for hCGRP (1-13), 8.5 nM for CGRP (1-19), 15.5 nM for hCGRP (1-37), 8.5 nM for hCGRP (8-19), 15.5 nM for hCGRP (8-26), and 46.5 nM for hCGRP (13-24). The immobilized synthetic human CGRP polypeptide fragments were bound to 45 nM of C245 Fab and the binding dissociation curves were fitted using analytical software.

hCGRP(1-13) [4] = target: T4, hCGRP(1-13) (human, disulfide 7-12); assay: BLI (Octet); hCGRP (1-13) against the fragments holding 8-19
T4 construct: also called polypeptide 1-13
T4 peptide: Biotin-GGGGGACDTATCVTHRLA
Method: as §2

hCGRP(1-13) [5] = target: T4, hCGRP(1-13); assay: BLI (Octet), biotin-peptide on SA probe, 45 nM Fab
Method: as §2
(§3) The kinetic parameters of hu224 Fab (Fab monomer fragments derived from humanized antibody hu224) binding to four synthetic human CGRP alpha polypeptide fragments (polypeptide 1-13, polypeptide 1-19, polypeptide 1-37, and polypeptide 8-19) were determined on an Octet RBD 96e system. Human CGRP synthetic polypeptide fragments were immobilized on the surfaces of SA bioprobes (Sartorius, Cat. No. 18-5019) at the following concentrations: 8.5 nM for CGRP (1-19), 15.5 nM for hCGRP (1-37), 10 nM for hCGRP (8-19), and 15.5 nM for hCGRP (8-26). The immobilized synthetic human CGRP polypeptide fragments were bound to 45 nM of hu224 Fab and the binding dissociation curves were fitted using analytical software.

hCGRP(1-19) = target: T5, hCGRP(1-19) (human, N-terminal biotin; CYS residues at positions 7 and 12 theoretically form 1 intrachain disulfide bond); assay: BLI (Octet), biotin-peptide on SA probe, 45 nM Fab
T5 construct: also called polypeptide 1-19
T5 peptide: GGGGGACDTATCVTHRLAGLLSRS
Method: as §2, §3

hCGRP(8-19) = target: T6, hCGRP(8-19) (human); assay: BLI (Octet), biotin-peptide on SA probe, 45 nM Fab
T6 construct: also called polypeptide 8-19
T6 peptide: Biotin-GGGGGVTHRLAGLLSRS
Method: as §2, §3

hCGRP(8-26) = target: T7, hCGRP(8-26) (human, N-terminal biotin); assay: BLI (Octet), biotin-peptide on SA probe, 45 nM Fab
T7 construct: also called polypeptide 8-26
T7 peptide: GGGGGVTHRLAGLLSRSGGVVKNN
Method: as §2, §3

hCGRP(1-37) = target: T8, hCGRP(1-37) (human, N-terminal biotin; C-terminal phenylalanine amide (F-NH2); CYS residues at positions 7 and 12 theoretically form 1 intrachain disulfide bond); assay: BLI (Octet), biotin-peptide on SA probe, 45 nM Fab
T8 construct: also called polypeptide 1-37; full-length hCGRP (1-37) polypeptide
T8 peptide: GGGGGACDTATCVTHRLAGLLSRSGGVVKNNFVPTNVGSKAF
Method: as §2, §3

koff [1]: 0.0143 s⁻¹ | koff [2]: 0.0141 s⁻¹ | Relative binding activity, % (Biotin-huCGRPaSA): 82% | IC50 (CGRP antigen): 0.0224 µg/mL | relative activity (%) vs C245 (CGRP antigen): 80% | koff [3]: 0.000265 s⁻¹
B1: hu224 (antibody, human IgG4 S228P, kappa, V domains shown)
VH: QVQLVQSGAEVKKPGASVKVSCKASGYSFTGYTMNWVRQAPGQRLEWMGLINPYIGNTHYNQKFKDRVTFTVDRSSSTAYMELSSLRSEDTAVYYCARELDSGFDYWGQGTLVTVSS
VL: DVVMTQSPDSLAVSLGERATINCRSSQNIVHSNGDTYLEWYQQKPGQPPKLLIYKVSNRFSGVPDRFSGSGSGTDFTLTISSLQAEDVAVYYCYQGSHVPWTFGQGTKLEIKR

binding result (hCGRP(13-24)): no binding (tested: 45 nM) | fold decrease in affinity (hCGRP(1-13) [4]): 100 fold | Kd (hCGRP(1-13) [5]): 24.4 nM | koff (hCGRP(1-13) [5]): 0.0172 s⁻¹ | kon (hCGRP(1-13) [5]): 704000 M⁻¹ s⁻¹ | Kd (hCGRP(1-19)): 0.0721 nM | koff (hCGRP(1-19)): 2.58e-05 s⁻¹ | kon (hCGRP(1-19)): 357000 M⁻¹ s⁻¹ | Kd (hCGRP(8-19)): 0.252 nM | koff (hCGRP(8-19)): 9.32e-05 s⁻¹ | kon (hCGRP(8-19)): 360000 M⁻¹ s⁻¹ | Kd (hCGRP(8-26)): 0.952 nM | koff (hCGRP(8-26)): 0.000316 s⁻¹ | kon (hCGRP(8-26)): 332000 M⁻¹ s⁻¹ | Kd (hCGRP(1-37)): 0.249 nM | koff (hCGRP(1-37)): 6.95e-05 s⁻¹ | kon (hCGRP(1-37)): 280000 M⁻¹ s⁻¹
B2: C245 Fab (Fab, V domains shown)
VH: EVQLQQSGPELVKPGASMKISCKASGYSFTGYTMNWVKQSHGNNLEWIGLINPYIGNTHYNQKFKDKATFTVDRSSSTAYMALLSLTSEDSAVYYCARELDSGFDYWGQGTTLTVSS
VL: DVLMTQTPLSLPVSLGDQASLSCRSSQNIVHSNGDTYLEWYLQKPGQSPKLLIYKVSNRFSGVPDRFSGSGSGTDFTLKISRVEAEDLGVYYCYQGSHVPWTFGGGTKLEIK
notes: Fab of chimeric C245; also called Fab monomer fragments derived from antibody C245
